From US20240425603A1 (Janssen / Centocor, published 2024) come the findings set out here.

In assay [1] the target is T1, human VEGFR1, full length, over-expressed on cells (human, UniProt P17948 27-1338).
T1 construct: on CHO-K1 or HEK cells; also called hVEGFR1; CHOK1/ human VEGFR1
Briefly: cell binding assay (column head prints IC50).

Assay [2] concerns the target human VEGFR1 (soluble antigen of the KinExA and SPR affinity assays) (human, UniProt P17948 27-758, limits assumed). Briefly: SPR. A general note: In SPR one partner is held on a chip, and binding of the other changes the refractive index at the surface.
Assay [3] concerns the target T2, rat VEGFR1 (soluble antigen of the KinExA and SPR affinity assays) (rat, UniProt P53767 23-758, limits assumed).
T2 sequence (looked up): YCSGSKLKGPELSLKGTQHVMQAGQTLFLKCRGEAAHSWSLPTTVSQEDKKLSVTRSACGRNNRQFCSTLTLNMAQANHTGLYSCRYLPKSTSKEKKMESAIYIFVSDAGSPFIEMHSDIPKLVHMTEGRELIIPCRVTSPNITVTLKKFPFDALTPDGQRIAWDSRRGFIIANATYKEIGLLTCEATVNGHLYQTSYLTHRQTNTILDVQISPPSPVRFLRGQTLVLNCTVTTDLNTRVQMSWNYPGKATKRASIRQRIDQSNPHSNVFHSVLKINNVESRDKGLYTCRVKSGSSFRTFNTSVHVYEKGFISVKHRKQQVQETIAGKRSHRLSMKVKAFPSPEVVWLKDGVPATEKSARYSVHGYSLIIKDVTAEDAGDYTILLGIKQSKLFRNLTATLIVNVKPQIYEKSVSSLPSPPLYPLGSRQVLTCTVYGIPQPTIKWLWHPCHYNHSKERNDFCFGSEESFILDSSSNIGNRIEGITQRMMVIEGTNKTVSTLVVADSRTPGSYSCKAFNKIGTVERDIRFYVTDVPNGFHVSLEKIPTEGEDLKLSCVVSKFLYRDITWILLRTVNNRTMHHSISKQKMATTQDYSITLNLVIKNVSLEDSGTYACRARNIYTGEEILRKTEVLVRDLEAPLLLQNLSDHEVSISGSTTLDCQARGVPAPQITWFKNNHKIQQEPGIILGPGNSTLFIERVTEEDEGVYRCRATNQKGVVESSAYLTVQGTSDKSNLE
Briefly: SPR.

The target of assay [4] is T3, murine VEGFR1, over-expressed on cells (mouse, UniProt P35969 23-1333).
T3 construct: whole, on cells; also called mouse VEGFR1
T3 sequence (looked up): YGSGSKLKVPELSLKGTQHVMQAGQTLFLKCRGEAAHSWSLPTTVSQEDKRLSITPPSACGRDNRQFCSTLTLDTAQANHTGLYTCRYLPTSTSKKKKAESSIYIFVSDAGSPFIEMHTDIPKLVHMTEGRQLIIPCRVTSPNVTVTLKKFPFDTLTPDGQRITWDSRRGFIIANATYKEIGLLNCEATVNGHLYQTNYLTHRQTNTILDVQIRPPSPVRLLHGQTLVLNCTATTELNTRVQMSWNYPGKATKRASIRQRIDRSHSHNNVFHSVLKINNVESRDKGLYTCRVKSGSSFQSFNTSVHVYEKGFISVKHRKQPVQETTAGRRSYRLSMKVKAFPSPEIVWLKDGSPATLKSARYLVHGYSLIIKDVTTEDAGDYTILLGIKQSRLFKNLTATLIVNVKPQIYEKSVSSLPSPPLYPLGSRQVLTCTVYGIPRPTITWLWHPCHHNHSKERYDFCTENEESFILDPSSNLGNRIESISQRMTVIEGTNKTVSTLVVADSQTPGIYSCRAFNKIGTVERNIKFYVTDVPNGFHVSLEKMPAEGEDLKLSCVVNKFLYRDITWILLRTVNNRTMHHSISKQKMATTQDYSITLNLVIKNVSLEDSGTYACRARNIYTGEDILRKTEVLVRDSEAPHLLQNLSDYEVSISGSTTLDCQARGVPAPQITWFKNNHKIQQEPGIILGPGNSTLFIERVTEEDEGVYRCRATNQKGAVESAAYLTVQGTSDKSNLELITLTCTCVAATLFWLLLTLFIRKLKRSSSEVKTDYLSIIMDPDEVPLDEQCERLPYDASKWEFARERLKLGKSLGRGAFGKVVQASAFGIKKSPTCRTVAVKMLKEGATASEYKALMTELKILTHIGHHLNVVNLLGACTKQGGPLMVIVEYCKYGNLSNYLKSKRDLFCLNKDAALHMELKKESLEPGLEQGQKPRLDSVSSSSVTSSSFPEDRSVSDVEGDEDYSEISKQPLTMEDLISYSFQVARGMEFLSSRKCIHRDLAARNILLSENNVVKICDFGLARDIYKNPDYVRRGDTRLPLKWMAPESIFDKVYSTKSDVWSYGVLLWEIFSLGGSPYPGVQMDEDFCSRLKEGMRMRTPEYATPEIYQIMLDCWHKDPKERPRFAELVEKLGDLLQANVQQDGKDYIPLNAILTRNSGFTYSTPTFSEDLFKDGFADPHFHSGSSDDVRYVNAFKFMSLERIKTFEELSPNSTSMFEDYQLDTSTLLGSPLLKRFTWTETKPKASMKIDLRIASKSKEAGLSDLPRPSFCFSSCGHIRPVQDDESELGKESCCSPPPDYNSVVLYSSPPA
Briefly: FACS cell binding (MFI) on HEK cells over-expressing murine VEGFR1; expanded clone supernatant per paragraph 492, concentration not given. In a few lines: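 Binding was assessed by flow cytometry as mean fluorescence intensity, using culture supernatants of chicken-derived antibody clones expressed as scFv-Fc (human IgG1). The clones were produced by transient transfection and expanded to 6-well plates (2 mL). Receptor over-expressing cells were HEK cells for mouse VEGFR1 and human VEGFR2, and K562 cells for human VEGFR3.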

Values joined by “and” are separate entries in the source; they are usually repeats but may differ in a detail not shown here. Identical values can stand only once.

Chain of human VEGFR1 (soluble antigen of the KinExA and SPR affinity assays) (P17948 27-758 limits assumed): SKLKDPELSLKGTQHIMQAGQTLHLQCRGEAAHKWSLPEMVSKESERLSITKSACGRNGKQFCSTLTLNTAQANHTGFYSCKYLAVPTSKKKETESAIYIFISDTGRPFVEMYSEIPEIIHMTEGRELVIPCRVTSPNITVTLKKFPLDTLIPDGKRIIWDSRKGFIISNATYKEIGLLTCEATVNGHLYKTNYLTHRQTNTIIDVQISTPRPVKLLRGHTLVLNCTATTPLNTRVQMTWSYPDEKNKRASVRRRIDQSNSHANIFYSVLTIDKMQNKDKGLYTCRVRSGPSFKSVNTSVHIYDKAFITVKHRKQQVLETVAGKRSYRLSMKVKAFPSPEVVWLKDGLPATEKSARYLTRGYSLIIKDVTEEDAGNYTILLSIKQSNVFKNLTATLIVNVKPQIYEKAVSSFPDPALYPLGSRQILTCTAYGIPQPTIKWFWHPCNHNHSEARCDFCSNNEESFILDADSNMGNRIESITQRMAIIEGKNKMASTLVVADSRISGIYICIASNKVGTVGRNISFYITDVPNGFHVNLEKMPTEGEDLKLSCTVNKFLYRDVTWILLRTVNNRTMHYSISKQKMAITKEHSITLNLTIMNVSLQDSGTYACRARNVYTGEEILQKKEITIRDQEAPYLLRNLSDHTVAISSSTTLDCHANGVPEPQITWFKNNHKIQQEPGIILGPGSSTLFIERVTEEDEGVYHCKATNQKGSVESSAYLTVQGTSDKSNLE
T1 sequence (P17948 27-1338 limits assumed): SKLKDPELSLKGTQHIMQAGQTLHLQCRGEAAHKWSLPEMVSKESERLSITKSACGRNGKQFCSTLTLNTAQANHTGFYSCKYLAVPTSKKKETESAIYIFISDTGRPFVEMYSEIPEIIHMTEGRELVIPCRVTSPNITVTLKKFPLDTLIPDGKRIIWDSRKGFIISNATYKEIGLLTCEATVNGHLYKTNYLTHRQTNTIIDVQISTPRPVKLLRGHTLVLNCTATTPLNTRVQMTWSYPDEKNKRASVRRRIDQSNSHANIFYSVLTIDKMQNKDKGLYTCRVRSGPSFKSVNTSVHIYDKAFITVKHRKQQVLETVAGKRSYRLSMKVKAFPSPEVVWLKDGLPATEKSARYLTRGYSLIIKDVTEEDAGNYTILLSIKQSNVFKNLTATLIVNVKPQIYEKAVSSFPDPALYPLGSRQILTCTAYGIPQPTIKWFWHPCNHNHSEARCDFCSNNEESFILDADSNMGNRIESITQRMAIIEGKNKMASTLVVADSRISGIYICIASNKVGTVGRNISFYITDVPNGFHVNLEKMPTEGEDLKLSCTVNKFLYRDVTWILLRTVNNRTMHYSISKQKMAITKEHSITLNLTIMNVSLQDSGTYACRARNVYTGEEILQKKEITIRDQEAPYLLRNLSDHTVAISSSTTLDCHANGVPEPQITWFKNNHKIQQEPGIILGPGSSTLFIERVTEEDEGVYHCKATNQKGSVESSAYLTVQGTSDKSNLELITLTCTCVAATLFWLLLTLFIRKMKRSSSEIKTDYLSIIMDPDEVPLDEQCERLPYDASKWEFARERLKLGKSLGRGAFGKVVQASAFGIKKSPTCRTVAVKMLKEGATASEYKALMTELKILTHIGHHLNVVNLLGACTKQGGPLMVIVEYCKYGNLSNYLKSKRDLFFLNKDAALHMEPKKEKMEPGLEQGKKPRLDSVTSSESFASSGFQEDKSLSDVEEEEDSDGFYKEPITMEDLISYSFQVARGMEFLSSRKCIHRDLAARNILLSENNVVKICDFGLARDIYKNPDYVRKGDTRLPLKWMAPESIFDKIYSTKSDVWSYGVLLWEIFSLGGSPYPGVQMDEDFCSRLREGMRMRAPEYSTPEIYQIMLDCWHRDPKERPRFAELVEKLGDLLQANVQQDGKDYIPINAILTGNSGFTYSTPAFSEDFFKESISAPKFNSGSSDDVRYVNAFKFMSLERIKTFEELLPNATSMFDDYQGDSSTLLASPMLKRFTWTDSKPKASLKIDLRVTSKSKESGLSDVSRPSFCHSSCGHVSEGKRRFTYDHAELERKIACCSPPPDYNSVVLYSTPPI

B1: VGFB54 (antibody, human IgG1, lambda, L234A L235A, V domains shown)
VH: EVQLLESGGGSVQPGGSLRLSCTASGFNFEDYGMNWVRQAPGKGLDWVSSINRNGDISTYHVDSVKGRFTISRDNSKNTLYLQMNSLRAEDTAIYYCTKNHDYHGMDVWGQGTTVTVSS
VL: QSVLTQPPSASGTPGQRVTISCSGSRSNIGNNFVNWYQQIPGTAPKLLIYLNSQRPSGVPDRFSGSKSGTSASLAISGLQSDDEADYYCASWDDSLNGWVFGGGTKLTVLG
notes: human IgG1 (L234A/L235A/D265S), lambda, 2H:2L; from OmniChicken
As to B1, the IC50 – broadly, the midpoint of a concentration-inhibition curve – in assay [1] is 0.198 nM.

B2: VGFB82 (antibody, human IgG1, lambda, L234A L235A, V domains shown)
VH: EVQLLESGGGLVQPGGSLRLSCEASGFDFSTYAMNWVRQAPGKGLEWVATINSEGTITSHAPAVKGRFTISRDNSKNTAYVQMNSLRAEDSAVYYCSSTTGTTHGMDVWGRGTTVTVSS
VL: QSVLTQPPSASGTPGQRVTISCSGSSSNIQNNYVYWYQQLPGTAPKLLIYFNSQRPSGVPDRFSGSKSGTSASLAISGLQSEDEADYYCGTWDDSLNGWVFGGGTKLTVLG
notes: human IgG1 (L234A/L235A/D265S)
Consider B2, for which the Kd (usually the concentration at which binding is half-saturated) in assay [2] is 0.01 nM and < 0.006 nM; in assay [3], 0.6 to 1 nM.

B3: VGFB71 (antibody, human IgG1, lambda, L234A L235A, V domains shown)
VH: EVQLLESGGGLVQPGGSLRLSCEASGFIFRDYNMNWVRQAPGKGLEWVSIITNDGSSTAYSDSVKGRFTISRDNSKNSLYLQMNSLRAEDTAIYYCVKVYYGMDDWGQGTTVTVSS
VL: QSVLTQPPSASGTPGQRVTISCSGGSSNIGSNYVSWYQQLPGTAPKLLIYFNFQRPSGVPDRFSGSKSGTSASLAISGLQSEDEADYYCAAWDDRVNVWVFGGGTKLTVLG
notes: as for B2
On to B3, for which the binding result in assay [4] is listed as “binds”.
